Laboratory results published in paper PMC8961534, “Interaction with the Assembly Chaperone Ump1 Promotes Incorporation of the β7 Subunit into Half-Proteasome Precursor Complexes Driving Their Dimerization” (Biomolecules, 2022).

T1: β7-∆CTE (β7 without C-terminal extension), untagged (S. cerevisiae, UniProt P30657 1-247)
T1 construct: β7/Pre4, S. cerevisiae, C-terminal extension (CTE, the last 19 residues) deleted; propeptide present; source: E. coli, purified
T1 sequence (looked up): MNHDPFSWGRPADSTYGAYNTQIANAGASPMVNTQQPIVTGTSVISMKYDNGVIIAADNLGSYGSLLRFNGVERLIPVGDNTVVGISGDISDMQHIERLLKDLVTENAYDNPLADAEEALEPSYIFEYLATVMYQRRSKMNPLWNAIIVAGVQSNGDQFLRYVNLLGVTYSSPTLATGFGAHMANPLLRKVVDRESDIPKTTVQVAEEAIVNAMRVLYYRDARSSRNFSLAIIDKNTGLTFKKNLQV


Columns and labels:
[1] = biological target: ^17–148Ump1-6His (S. cerevisiae) (UniProt P38293); experiment: fluorescence microscopy-based on-bead binding assay; Ump1-6His or ^17–148Ump1-6His from E. coli extracts bound to Ni-NTA beads and washed (20 mM imidazole); extracts with mNeonGreen fusion proteins, adjusted by fluorescence, added 1 h, 4 °C; beads imaged, quantified with Fiji (n = 5), empty vector background subtracted
[2] = biological target: T1, β7-∆CTE (β7 without C-terminal …); experiment: pull-down; native extracts of E. coli expressing Ump1-6His incubated with Ni-NTA resin, washed, then incubated with purified untagged β7 versions; elution with imidazole, anti-β7 and anti-Ump1 Western blotting, LI-COR quantification (n = 3); details: both partners purified

Sequence of full-length β7 (^1–266β7) fused to mNeonGreen and 2HA (P30657 whole entry, the tested form may be a part): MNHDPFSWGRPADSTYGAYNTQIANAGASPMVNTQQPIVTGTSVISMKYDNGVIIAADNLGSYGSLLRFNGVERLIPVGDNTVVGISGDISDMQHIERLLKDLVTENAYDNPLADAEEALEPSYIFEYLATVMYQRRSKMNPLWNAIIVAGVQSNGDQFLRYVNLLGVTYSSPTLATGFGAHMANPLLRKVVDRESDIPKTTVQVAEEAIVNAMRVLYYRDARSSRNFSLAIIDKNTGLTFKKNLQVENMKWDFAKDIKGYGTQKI

reduction in binding efficiency against full-length Ump1 [1] [%] | binding result [2] | Molecule
50 | – | full-length β7 (^1–266β7) fused to mNeonGreen and 2HA (from UniProt P30657 1-266) (natural protein)
– | binds | full-length Ump1-6His (natural protein, S. cerevisiae, UniProt P38293 1-148, looked up, source: E. coli; not shown: 6His, C-terminal, kept) MNIVPQDTFKSQVSTDQDKSVLSSAVPSLPDTLRQQEGGAVPLSTQLNDRHPLESTLKNWETTQRQRQMEQYRQIFGIAEPMKRTMEMEIVNRTDFNPLSTNGSIHRDILLNKECSIDWEDVYPGTGLQASTMVGDDVHSKIEKQLGI
